In the supplement of paper PMC5998384:

Legend:
HeLa Kyoto [1] = assay: solubility change mitosis vs G1/S (difference of NP-40 vs SDS log2 ratios) (log2 ratio difference); higher = more soluble in mitosis
HeLa Kyoto [2] = assay: thermal stability score vs G1/S (z-score of summed log2 fold changes over temperatures); higher = more thermally stable than in G1/S
HeLa Kyoto [3] = assay: solubility in G1/S (NP-40 vs SDS abundance) (log2 ratio); higher = more soluble; conditions: cell cycle stage: G1/S
[4] = cell cycle stage: early G1 (4.5 h after nocodazole release)
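For solubility change mitosis vs G1/S (difference of NP-40 vs SDS log2 ratios) in this document: synchronized HeLa Kyoto cells (double thymidine block for G1/S, nocodazole release for mitosis), protein amounts in NP-40 versus SDS lysates quantified by mass spectrometry, three biological replicates.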
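For solubility in G1/S (NP-40 vs SDS abundance) in this document: HeLa Kyoto cells arrested at G1/S by double thymidine block, proteins quantified by TMT10plex mass spectrometry in mild NP-40 versus SDS extracts, three biological replicates.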
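For thermal stability score vs G1/S (z-score of summed log2 fold changes over temperatures) in this document: synchronized HeLa Kyoto cells, proteins quantified by TMT10plex mass spectrometry, three biological replicates, mitosis taken 0.5 h after nocodazole release, G1/S directly after double thymidine block.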

Row | Sequence | solubility change mitosis (log2) (HeLa Kyoto [1]) | thermal stability score (HeLa Kyoto [2]; [4]) | thermal stability score (HeLa Kyoto [2]; cell cycle stage: mitosis) | solubility in G1/S (log2) (HeLa Kyoto [3])
1 | MAARAVLDEFTAPAEKAELLEQSRGRIEGLFGVSLAVLGALGAEEPLPARIWLQLCGAQEAVHSAKEYIKGICEPELEERECYPKDMHCIFVGAESLFLKSLIQDTCADLCILDIGLLGIRGSAEAVVMARSHIQQFVKLFENKENLPSSQKESEVKREFKQFVEAHADNYTMDLLILPTSLKKELLTLTQGEENLFETGDDEVIEMRDSQQTEFTQNAATGLNISRDETVLQEEARNKAGTPVSELTKQMDTVLSSSPDVLFDPINGLTPDEEALSNERICQKRRFSDSEERHTKKQFSLENVQEGEILHDAKTLAGNVIADLSDSSADSENLSPDIKETTEEMEYNILVNFFKTMGYSQEIVEKVIKVYGPSTEPLLLLEEIEKENKRFQEDREFSAGTVYPETNKTKNKGVYSSTNELTTDSTPKKTQAHTQQNMVEKFSQLPFKVEAKPCTSNCRINTFRTVPIEQKHEVWGSNQNYICNTDPETDGLSPSVASPSPKEVNFVSRGASSHQPRVPLFPENGLHQQPEPLLPNNMKSACEKRLGCCSSPHSKPNCSTLSPPMPLPQLLPSVTDARSAGPSDHIDSSVTGVQRFRDTLKIPYKLELKNEPGRTDLKHIVIDGSNVAITHGLKKFFSCRGIAIAVEYFWKLGNRNITVFVPQWRTRRDPNVTEQHFLTQLQELGILSLTPARMVFGERIASHDDRFLLHLADKTGGIIVTNDNFREFVNESVSWREIITKRLLQYTFVGDIFMVPDDPLGRSGPRLEEFLQKEVCLRDMQPLLSALPNVGMFDPSFRVPGTQAASTSHQPPTRIQGAPSSHWLPQQPHFPLLPALPSLQQNLPMPAQRSSAETNELREALLKIFPDSEQRLKIDQILVAHPYMKDLNALSAMVLD [N4BP1] | -0.0226 | 1.68 | 2.82 | 0.0767
2 | MAASRLELNLVRLLSRCEAMAAEKRDPDEWRLEKYVGALEDMLQALKVHASKPASEVINEYSWKVDFLKGMLQAEKLTSSSEKALANQFLAPGRVPTTARERVPATKTVHLQSRARYTSEMRSELLGTDSAEPEMDVRKRTGVAGSQPVSEKQLAAELDLVLQRHQNLQEKLAEEMLGLARSLKTNTLAAQSVIKKDNQTLSHSLKMADQNLEKLKTESERLEQHTQKSVNWLLWAMLIIVCFIFISMILFIRIMPKLK [USE1] | -0.0501 | 0.334 | 0.48 | 0.00595
3 | MAEDWLDCPALGPGWKRREVFRKSGATCGRSDTYYQSPTGDRIRSKVELTRYLGPACDLTLFDFKQGILCYPAPKAHPVAVASKKRKKPSRPAKTRKRQVGPQSGEVRKEAPRDETKADTDTAPASFPAPGCCENCGISFSGDGTQRQRLKTLCKDCRAQRIAFNREQRMFKRVGCGECAACQVTEDCGACSTCLLQLPHDVASGLFCKCERRRCLRIVERSRGCGVCRGCQTQEDCGHCPICLRPPRPGLRRQWKCVQRRCLRGKHARRKGGCDSKMAARRRPGAQPLPPPPPSQSPEPTEPHPRALAPSPPAEFIYYCVDEDELQPYTNRRQNRKCGACAACLRRMDCGRCDFCCDKPKFGGSNQKRQKCRWRQCLQFAMKRLLPSVWSESEDGAGSPPPYRRRKRPSSARRHHLGPTLKPTLATRTAQPDHTQAPTKQEAGGGFVLPPPGTDLVFLREGASSPVQVPGPVAASTEALLQEAQCSGLSWVVALPQVKQEKADTQDEWTPGTAVLTSPVLVPGCPSKAVDPGLPSVKQEPPDPEEDKEENKDDSASKLAPEEEAGGAGTPVITEIFSLGGTRFRDTAVWLPRSKDLKKPGARKQ [MBD1] | 0.37 | -0.407 | -0.0664 | -0.475
4 | MAKQLQARRLDGIDYNPWVEFVKLASEHDVVNLGQGFPDFPPPDFAVEAFQHAVSGDFMLNQYTKTFGYPPLTKILASFFGELLGQEIDPLRNVLVTVGGYGALFTAFQALVDEGDEVIIIEPFFDCYEPMTMMAGGRPVFVSLKPGPIQNGELGSSSNWQLDPMELAGKFTSRTKALVLNTPNNPLGKVFSREELELVASLCQQHDVVCITDEVYQWMVYDGHQHISIASLPGMWERTLTIGSAGKTFSATGWKVGWVLGPDHIMKHLRTVHQNSVFHCPTQSQAAVAESFEREQLLFRQPSSYFVQFPQAMQRCRDHMIRSLQSVGLKPIIPQGSYFLITDISDFKRKMPDLPGAVDEPYDRRFVKWMIKNKGLVAIPVSIFYSVPHQKHFDHYIRFCFVKDEATLQAMDEKLRKWKVEL [CCBL1] | -0.211 | 0.0443 | -0.361 | 0.0856
5 | MARPGMERWRDRLALVTGASGGIGAAVARALVQQGLKVVGCARTVGNIEELAAECKSAGYPGTLIPYRCDLSNEEDILSMFSAIRSQHSGVDICINNAGLARPDTLLSGSTSGWKDMFNVNVLALSICTREAYQSMKERNVDDGHIININSMSGHRVLPLSVTHFYSATKYAVTALTEGLRQELREAQTHIRATCISPGVVETQFAFKLHDKDPEKAAATYEQMKCLKPEDVAEAVIYVLSTPAHIQIGDIQMRPTEQVT [DHRS11] | -0.00389 | -0.426 | -1.39 | 0.514
6 | MARTTSQLYDAVPIQSSVVLCSCPSPSMVRTQTESSTPPGIPGGSRQGPAMDGTAAEPRPGAGSLQHAQPPPQPRKKRPEDFKFGKILGEGSFSTVVLARELATSREYAIKILEKRHIIKENKVPYVTRERDVMSRLDHPFFVKLYFTFQDDEKLYFGLSYAKNGELLKYIRKIGSFDETCTRFYTAEIVSALEYLHGKGIIHRDLKPENILLNEDMHIQITDFGTAKVLSPESKQARANSFVGTAQYVSPELLTEKSACKSSDLWALGCIIYQLVAGLPPFRAGNEYLIFQKIIKLEYDFPEKFFPKARDLVEKLLVLDATKRLGCEEMEGYGPLKAHPFFESVTWENLHQQTPPKLTAYLPAMSEDDEDCYGNYDNLLSQFGCMQVSSSSSSHSLSASDTGLPQRSGSNIEQYIHDLDSNSFELDLQFSEDEKRLLLEKQAGGNPWHQFVENNLILKMGPVDKRKGLFARRRQLLLTEGPHLYYVDPVNKVLKGEIPWSQELRPEAKNFKTFFVHTPNRTYYLMDPSGNAHKWCRKIQEVWRQRYQSHPDAAVQ [PDPK1] | -0.222 | 1.38 | 0.777 | 0.156
7 | MASAAVESFVTKQLDLLELERDAEVEERRSWQENISLKELQSRGVCLLKLQVSSQRTGLYGRLLVTFEPRRYGSAAALPSNSFTSGDIVGLYDAANEGSQLATGILTRVTQKSVTVAFDESHDFQLSLDRENSYRLLKLANDVTYRRLKKALIALKKYHSGPASSLIEVLFGRSAPSPASEIHPLTFFNTCLDTSQKEAVLFALSQKELAIIHGPPGTGKTTTVVEIILQAVKQGLKVLCCAPSNIAVDNLVERLALCKQRILRLGHPARLLESIQQHSLDAVLARSDSAQIVADIRKDIDQVFVKNKKTQDKREKSNFRNEIKLLRKELKEREEAAMLESLTSANVVLATNTGASADGPLKLLPESYFDVVVIDECAQALEASCWIPLLKARKCILAGDHKQLPPTTVSHKAALAGLSLSLMERLAEEYGARVVRTLTVQYRMHQAIMRWASDTMYLGQLTAHSSVARHLLRDLPGVAATEETGVPLLLVDTAGCGLFELEEEDEQSKGNPGEVRLVSLHIQALVDAGVPARDIAVVSPYNLQVDLLRQSLVHRHPELEIKSVDGFQGREKEAVILSFVRSNRKGEVGFLAEDRRINVAVTRARRHVAVICDSRTVNNHAFLKTLVEYFTQHGEVRTAFEYLDDIVPENYSHENSQGSSHAATKPQGPATSTRTGSQRQEGGQEAAAPARQGRKKPAGKSLASEAPSQPSLNGGSPEGVESQDGVDHFRAMIVEFMASKKMQLEFPPSLNSHDRLRVHQIAEEHGLRHDSSGEGKRRFITVSKRAPRPRAALGPPAGTGGPAPLQPVPPTPAQTEQPPREQRGPDQPDLRTLHLERLQRVRSAQGQPASKEQQASGQQKLPEKKKKKAKGHPATDLPTEEDFEALVSAAVKADNTCGFAKCTAGVTTLGQFCQLCSRRYCLSHHLPEIHGCGERARAHARQRISREGVLYAGSGTKNGSLDPAKRAQLQRRLDKKLSELSNQRTSRRKERGT [IGHMBP2] | 0.296 | 0.859 | 0.156 | -0.73
8 | MASADKNGGSVSSVSSSRLQSRKPPNLSITIPPPEKETQAPGEQDSMLPEGFQNRRLKKSQPRTWAAHTTACPPSFLPKRKNPAYLKSVSLQEPRSRWQESSEKRPGFRRQASLSQSIRKGAAQWFGVSGDWEGQRQQWQRRSLHHCSMRYGRLKASCQRDLELPSQEAPSFQGTESPKPCKMPKIVDPLARGRAFRHPEEMDRPHAPHPPLTPGVLSLTSFTSVRSGYSHLPRRKRMSVAHMSLQAAAALLKGRSVLDATGQRCRVVKRSFAFPSFLEEDVVDGADTFDSSFFSKEEMSSMPDDVFESPPLSASYFRGIPHSASPVSPDGVQIPLKEYGRAPVPGPRRGKRIASKVKHFAFDRKKRHYGLGVVGNWLNRSYRRSISSTVQRQLESFDSHRPYFTYWLTFVHVIITLLVICTYGIAPVGFAQHVTTQLVLRNKGVYESVKYIQQENFWVGPSSIDLIHLGAKFSPCIRKDGQIEQLVLRERDLERDSGCCVQNDHSGCIQTQRKDCSETLATFVKWQDDTGPPMDKSDLGQKRTSGAVCHQDPRTCEEPASSGAHIWPDDITKWPICTEQARSNHTGFLHMDCEIKGRPCCIGTKGSCEITTREYCEFMHGYFHEEATLCSQVHCLDKVCGLLPFLNPEVPDQFYRLWLSLFLHAGVVHCLVSVVFQMTILRDLEKLAGWHRIAIIFILSGITGNLASAIFLPYRAEVGPAGSQFGLLACLFVELFQSWPLLERPWKAFLNLSAIVLFLFICGLLPWIDNIAHIFGFLSGLLLAFAFLPYITFGTSDKYRKRALILVSLLAFAGLFAALVLWLYIYPINWPWIEHLTCFPFTSRFCEKYELDQVLH [RHBDF2] | 0.063 | -2.24 | -2.01 | -0.177
9 | MASPRASRWPPPLLLLLLPLLLLPPAAPGTRDPPPSPARRALSLAPLAGAGLELQLERRPEREPPPTPPRERRGPATPGPSYRAPEPGAATQRGPSGRAPRGGSADAAWKHWPESNTEAHVENITFYQNQEDFSTVSSKEGVMVQTSGKSHAASDAPENLTLLAETADARGRSGSSSRTNFTILPVGYSLEIATALTSQSGNLASESLHLPSSSSEFDERIAAFQTKSGTASEMGTERAMGLSEEWTVHSQEATTSAWSPSFLPALEMGELTTPSRKRNSSGPDLSWLHFYRTAASSPLLDLSSSSESTEKLNNSTGLQSSSVSQTKTMHVATVFTDGGPRTLRSLTVSLGPVSKTEGFPKDSRIATTSSSVLLSPSAVESRRNSRVTGNPGDEEFIEPSTENEFGLTSLRWQNDSPTFGEHQLASSSEVQNGSPMSQTETVSRSVAPMRGGEITAHWLLTNSTTSADVTGSSASYPEGVNASVLTQFSDSTVQSGGSHTALGDRSYSESSSTSSSESLNSSAPRGERSIAGISYGQVRGTAIEQRTSSDHTDHTYLSSTFTKGERALLSITDNSSSSDIVESSTSYIKISNSSHSEYSSFFHAQTERSNISSYDGEYAQPSTESPVLHTSNLPSYTPTINMPNTSVVLDTDAEFVSDSSSSSSSSSSSSSSGPPLPLPSVSQSHHLFSSILPSTRASVHLLKSTSDASTPWSSSPSPLPVSLTTSTSAPLSVSQTTLPQSSSTPVLPRARETPVTSFQTSTMTSFMTMLHSSQTADLKSQSTPHQEKVITESKSPSLVSLPTESTKAVTTNSPLPPSLTESSTEQTLPATSTNLAQMSPTFTTTILKTSQPLMTTPGTLSSTASLVTGPIAVQTTAGKQLSLTHPEILVPQISTEGGISTERNRVIVDATTGLIPLTSVPTSAKEMTTKLGVTAEYSPASRSLGTSPSPQTTVVSTAEDLAPKSATFAVQSSTQSPTTVSSSASVNSCAVNPCLHNGECVADNTSRGYHCRCPPSWQGDDCSVDVNECLSNPCPSTAMCNNTQGSFICKCPVGYQLEKGICNLVRTFVTEFKLKRTFLNTTVEKHSDLQEVENEITKTLNMCFSALPSYIRSTVHASRESNAVVISLQTTFSLASNVTLFDLADRMQKCVNSCKSSAEVCQLLGSQRRIFRAGSLCKRKSPECDKDTSICTDLDGVALCQCKSGYFQFNKMDHSCRACEDGYRLENETCMSCPFGLGGLNCGNPYQLITVVIAAAGGGLLLILGIALIVTCCRKNKNDISKLIFKSGDFQMSPYAEYPKNPRSQEWGREAIEMHENGSTKNLLQMTDVYYSPTSVRNPELERNGLYPAYTGLPGSRHSCIFPGQYNPSFISDESRRRDYF [HEG1] | -0.0254 | -0.763 | -1.15 | -0.231
